# Assay results published in patent US20200123233A1 (published 2020).
# Numbering of substitutions follows the chain as printed.
# T1: Glycoprotein G of rabies virus strain CVS-11 (Challenge Virus Standard-11, ATCC VR 959) (rabies virus, strain CVS-11)
# T1 chain: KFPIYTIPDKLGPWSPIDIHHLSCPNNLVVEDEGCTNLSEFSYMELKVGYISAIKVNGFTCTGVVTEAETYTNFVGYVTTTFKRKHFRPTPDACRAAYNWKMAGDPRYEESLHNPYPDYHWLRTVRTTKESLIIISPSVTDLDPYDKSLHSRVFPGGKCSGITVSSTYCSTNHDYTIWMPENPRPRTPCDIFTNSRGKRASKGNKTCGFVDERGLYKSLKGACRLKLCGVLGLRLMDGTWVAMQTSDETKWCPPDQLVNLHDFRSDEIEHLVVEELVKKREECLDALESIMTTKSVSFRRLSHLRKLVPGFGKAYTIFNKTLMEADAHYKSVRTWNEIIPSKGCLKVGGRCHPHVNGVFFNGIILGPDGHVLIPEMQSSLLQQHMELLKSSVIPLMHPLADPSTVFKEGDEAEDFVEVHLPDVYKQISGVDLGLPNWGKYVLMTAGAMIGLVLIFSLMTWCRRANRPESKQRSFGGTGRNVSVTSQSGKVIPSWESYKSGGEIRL
# B1: LG191D3 (VHH)
# VHH: EVQLVESGGGLVQAGGSLRLSCEASGRTYSRYGMGWFRQAPGKEREFVAAVSRLSGPRTVYADSVKGRFTISRDNAENTVYLQMNSLKPEDTAVYTCAAELTNRNSGAYYYAWAYDYWGQGTQVTVSS
# B2: RSVNC23 (VHH)
# VHH: EVQLVESGGGLVQPGGSLRLSCAASGRTFSSIAMGWFRQAPGKEREFVAAISWSRGRTFYADSVKGRFIISRDDAANTAYLQMNSLKPEDTAVYYCAVDTASWNSGSFIYDWAYDHWGQGTQVTVSS
# B3: RSVPMP7B2 (VHH)
# VHH: EVQLVESGGGLVQAGDSLRLSCAASGRTFSSYAMGWFRQAPGKEREFVAAISWSDGSTYYADSVKGRFTISRDNAKNTVYLQMNSLKPEDTAVYYCAADLTSTNPGSYIYIWAYDYWGQGTQVTVSS
# B4: LG191E4 (VHH)
# VHH: EVQLVESGGGLVQAGGSLRLSCAASGPTFSADTMGWFRQAPGKEREFVATIPWSGGIAYYSDSVKGRFTMSRDNAKNTVDLQMNSLKPEDTALYYCAGSSRIYIYSDSLSERSYDYWGQGTQVTVSS
# B5: RSVPMP15B3 (VHH)
# VHH: EVQLVESGGGLVQPGGSLRLSCAASGLTLDYYALGWFRQAPGKEREGVSCISSSDHSTTYTDSVKGRFTISWDNAKNTLYLQMNSLKPGDTAVYYCAADPALGCYSGSYYPRYDYWGQGTQVTVSS
# B6: RSVPMP15H8 (VHH)
# VHH: EVQLVESGGGLVQAGGSLRLSCAASGRSFSNYVLGWFRQAPGKEREFVAAISFRGDSAIGAPSVEGRFTISRDNAKNTGYLQMNSLVPDDTAVYYCGAGTPLNPGAYIYDWSYDYWGRGTQVTVSS
# B7: RSVNC41 (VHH)
# VHH: EVQLVESGGGLVQAGGSLSISCAASGGSLSNYVLGWFRQAPGKEREFVAAINWRGDITIGPPNVEGRFTISRDNAKNTGYLQMNSLAPDDTAVYYCGAGTPLNPGAYIYDWSYDYWGRGTQVTVSS
# B8: IV144 (VHH)
# VHH: QVQLQQSGGGLVQAGGSLRLSCAASGNIISFNPMGWHRQAPGKQRELVASITSGGSISYVDSVKGRFTISRDSAKNTIYLQMNSLKPEDTAVYFCAGEGPRRRGSTWYTDTYWGQGTQVTVSS
# notes: yeast-produced
# B9: IV25 (VHH)
# VHH: QVQLQQSGGGLVQSGGSLSLSCAASGITLNNRVVGWFRQAPGKEREFVGRIMWSVGDTFYARSVKGRFTISRDNAKNTMYLQMNALKPEDTAVYYCAAARDPDLYTGQYEYWGQGTQVTVSS
# notes: yeast-produced
# B10: IV157 (VHH)
# VHH: QVQLQQSGGGLVQPGGSLRLSCAASRSDISFNPMGWYRQAPGKQRELVATISNGGTTNYADSVKGRFTISQDNAKTTVYLQMNSLKPEDTAVYYCNGRGPRYATTGWYTDDYWGQGTQVTVSS
# notes: yeast-produced
# B11: IV2 (VHH)
# VHH: QVQLQESGGGLVQTGGSLRLSCAASGRTFGGYAMAWFRQAPRKGREFVASVTWNGGATDYAGSVKDRFTVSRDTANNTMYLQMNSLKPEDTAVYICGAASGYRSTDRLSDPGWTNYWGQGTQVTVSS
# B12: IV7 (VHH)
# VHH: QVQLQQSGGGLVQTGGSLRLSCAASGRTFGGYAMAWFRQAPGKGREFVAAVTWSAGTTNYAGSVKDRFTVSRDNANNTMYLQMNSLKPEDTAVYICGAASGYRSTDRLSEPAWINYWGQGTQVTVSS
# B13: IV10 (VHH)
# VHH: B12 VHH with Q6E, T14A, A24T, T28P, S100T, E110D, A112N, I114V
# B14: 1E4 (VHH)
# VHH: B1 VHH with Y29F, R31S, S106P, A112T
# B15: 213H7-15GS-214 F8 (VHH)
# chain: EVQLVESGGGLVQAGGSLRLSCAASGRTLSSYRMGWFRQAPGKEREFISTISWNGRSTYYADSVKGRFIFSEDNAKNTVYLQMNSLKPEDTAVYYCAAALIGGYYSDVDAWSYWGPGTQVTVSSGGGGSGGGGSGGGGSEVQLVESGGDLVQAGGSLRLSCVASGSTYSINAMGWYRQAPGKLRELVAAFRTGGSTDYADSVKGRFTISRDTAKNTVYLQMNSLKPEDTAVYYCNAEVIYYPYDYWGQGTQVTVSS
# Biological target: T2, FTM-NN protein (membrane anchorless form of the Long fusion protein, 70 kDa) (human respiratory syncytial virus, …, UniProt P12568 26-524)
# T2 construct: domain: membrane anchorless form of the fusion protein
# Assay: SPR (Biacore), FTM-NN immobilised
Binder,Kd,koff,kon
B1,1.9 nM,0.0028 s⁻¹,1.5e+06 M⁻¹ s⁻¹
B2,0.92 nM,0.00074 s⁻¹,800000 M⁻¹ s⁻¹
B3,1.1 nM,0.00065 s⁻¹,570000 M⁻¹ s⁻¹
B4,0.27 nM,0.00015 s⁻¹,570000 M⁻¹ s⁻¹
B5,0.67 nM,0.00027 s⁻¹,410000 M⁻¹ s⁻¹
B6,16 nM,0.021 s⁻¹,1.2e+06 M⁻¹ s⁻¹
B7,8.1 nM,0.0067 s⁻¹,820000 M⁻¹ s⁻¹

# Biological target: authentic influenza antigen of A/PR/8/34 (ATCC VR-1469), H1N1 (influenza A virus A/PR/8/34 (H1N1), UniProt P03452 18-565)
# Assay: ELISA on coated authentic influenza antigen
row,Binder,binding result
1,B8,no binding (tested: 10 µg/ml)
2,B9,no binding (tested: 10 µg/ml)
3,B10,no binding (tested: 10 µg/ml)

# Biological target: hRSV (inactivated hRSV strain Long, Hytest #8RSV79), F protein on virus particles (human respiratory syncytial virus, …, UniProt P12568 26-574)
# Assay: binding ELISA on coated hRSV (Hytest), anti-VHH detection
row,Binder,EC50
1,B1,0.15 nM
2,B2,0.1 nM
3,B3,0.09 nM
4,B4,0.083 nM
5,B5,0.058 nM
6,B6,0.83 nM
7,B7,0.41 nM

# Biological target: authentic influenza antigen of A/PR/8/34 (ATCC VR-1469), serotype H1N1 (influenza A virus A/PR/8/34 (H1N1), UniProt P03452 18-565)
# Assay: ELISA, coated authentic AIV antigen, E. coli culture supernatant, anti-c-myc-HRP
row,Binder,Extinction at 450 nm in ELISA
1,B11,0.048 extinction at 450 nm
2,B12,0.048 extinction at 450 nm
3,B13,0.047 extinction at 450 nm

# Biological target: F protein of RSV A-2 (human respiratory syncytial virus, …, UniProt P03420 26-574)
# Assay: cell-based or functional assay
row,Binder,"RSV neutralization IC50 (nM) (n = 2), A-2"
1,B1,227 nM
2,B14,298 nM
3,B2,109 nM
4,B3,177 nM
5,B6,218 nM

# Biological target: F protein of RSV Long (RSV LONG M-2) (human respiratory syncytial virus, …, UniProt P12568 26-574)
# Assay: cell-based or functional assay
row,Binder,"RSV neutralization IC50 (nM) (n = 2), Long"
1,B1,253 nM
2,B14,380 nM
3,B2,144 nM
4,B3,91 nM
5,B6,200 nM

# Biological target: F protein of RSV B-1 (human respiratory syncytial virus, …, UniProt P13843 26-574)
# Assay: cell-based or functional assay
row,Binder,"RSV neutralization IC50 (nM) (n = 2), B1"
1,B3,2690 nM
2,B4,4330 nM
3,B5,1270 nM
4,B6,2340 nM

# Biological target: T1, Glycoprotein G of rabies virus strain …
# Assay: cell-based or functional assay
Binder,"CVS neutralizing antibody titre, nM IC50 (RFFIT)",Potency (IU/nM) increase versus monovalent (RFFIT)
B15,0.33 nM,271 fold

# Biological target: T2, FTM-NN protein (membrane anchorless …)
# Assay: competition ELISA on coated FTM-NN; competitor biotinylated Synagis Fab
row,Binder,EC50
1,B1,5.9 nM
2,B2,2.3 nM
3,B3,1.9 nM
4,B6,39 nM
5,B7,32 nM
